In US6512102B1, “Compositions and methods of diagnosis and treatment using casein kinase I” (Chiron Corporation, priority 1998, dated 2003):

Tests used:
Wnt pathway = Wnt pathway activation by CKI isoforms (ectopic axis in Xenopus embryos and Lef-1 reporter gene assay); type: cell-based
Method: There are seven mammalian CKI isoforms (α, β, γ1−3, δ and ε). All these isoforms contain a conserved serine-threonine kinase domain and various amino terminal and carboxyl terminal domains. CKIε and CKIδ the most closely related isoforms have a longer carboxy terminus compared to the other isoforms. […] The activation of the Wnt pathway was analyzed by induction of ectopic axis in Xenopus embryos and the Lef-1 reporter gene assay.
Lef-1 reporter assays were carried out as done as described in Sakanaka et al. (1998) Proc Natl Acad Sci USA. 95:3020-3. For example, 293 cells were seeded at 2×10^5 cells/well in 12-well culture plates. Cells were transfected with 0.2 μg of the luciferase reporter gene, 0.02 μg of Lef-1, 0.03 μg of pTK-β-gal as an internal control, the indicated amount of CKIε, Axin or Wnt-1 cDNA, and pcDNA3.1 vector to a total amount of 0.4 μg of plasmids. Transfection was performed by Lipofectamine (Lifetechnologies Inc. #18324012). Luciferase and β-gal activities were measured 48 h after transfection. Relative light units (RLU) were measured with a luminometer (Analytical Luminescence Laboratory, Monolight 2010).

Arm (β-catenin) = Arm (β-catenin) protein level in stable Drosophila Schneider cells, Western blot; type: cell-based; details: cells expressing CKIε and Sgg (GSK3)
Description: Drosophila Schneider cell lines were derived that stably express CKIε in the presence or absence of Drosophila Sgg (GSK3) protein. CKIε and sgg (GSK3) gene expression were controlled by a metallothionein promoter which is induced by copper. […] In the cells expressing CKIε and Sgg (GSK3), Arm (β-catenin) protein level is reduced.
CKIε was PCR-cloned into a vector pRmHa-3 containing a copper-inducible promoter (metallothionine). It was co-transfected with pMKK3 containing the neo-gene (G418-resistant gene) into Drosophila Schneider cells. G418 was used for selection of a stable cell line. In addition, stable cell lines containing combinations of CKIε+wt sgg, CKIε+Actsgg, CKIKD, CKIKD+DN Sgg were made. Actsgg is a mutant containing a mutation of Ser9 to Ala. To detect stabilized Arm, cells were plated 16 hours before the copper induction and lysed three hours after the copper induction. Western blots were performed with anti-Arm mAb 7A12.

| Molecule | activation of the Wnt pathway (Wnt pathway) | Arm (β-catenin) protein level (Arm (β-catenin)) |
| --- | --- | --- |
| CKIα: casein kinase I α isoform (protein, UniProt P48729 2-337, looked up) Casein kinase I isoform alpha: ASSSGSKAEFIVGGKYKLVRKIGSGSFGDIYLAINITNGEEVAVKLESQKARHPQLLYESKLYKILQGGVGIPHIRWYGQEKDYNVLVMDLLGPSLEDLFNFCSRRFTMKTVLMLADQMISRIEYVHTKNFIHRDIKPDNFLMGIGRHCNKLFLIDFGLAKKYRDNRTRQHIPYREDKNLTGTARYASINAHLGIEQSRRDDMESLGYVLMYFNRTSLPWQGLKAATKKQKYEKISEKKMSTPVEVLCKGFPAEFAMYLNYCRGLRFEEAPDYMYLRQLFRILFRTLNHQYDYTFDWTMLKQKAAQQAASSSGQGQQAQTPTGKQTDKTKSNMKGF | not the case | – |
| CKIδ: casein kinase I δ isoform (protein, UniProt P48730 1-415, looked up) Casein kinase I isoform delta: MELRVGNRYRLGRKIGSGSFGDIYLGTDIAAGEEVAIKLECVKTKHPQLHIESKIYKMMQGGVGIPTIRWCGAEGDYNVMVMELLGPSLEDLFNFCSRKFSLKTVLLLADQMISRIEYIHSKNFIHRDVKPDNFLMGLGKKGNLVYIIDFGLAKKYRDARTHQHIPYRENKNLTGTARYASINTHLGIEQSRRDDLESLGYVLMYFNLGSLPWQGLKAATKRQKYERISEKKMSTPIEVLCKGYPSEFATYLNFCRSLRFDDKPDYSYLRQLFRNLFHRQGFSYDYVFDWNMLKFGASRAADDAERERRDREERLRHSRNPATRGLPSTASGRLRGTQEVAPPTPLTPTSHTANTSPRPVSGMERERKVSMRLHRGAPVNISSSDLTGRQDTSRMSTSQIPGRVASSGLQSVVHR | activate the Wnt pathway | – |
| Sgg: Drosophila Sgg (GSK3) protein, copper-inducible expression (protein, UniProt P18431 1-514, looked up) Protein kinase shaggy: MSGRPRTSSFAEGNKQSPSLVLGGVKTCSRDGSKITTVVATPGQGTDRVQEVSYTDTKVIGNGSFGVVFQAKLCDTGELVAIKKVLQDRRFKNRELQIMRKLEHCNIVKLLYFFYSSGEKRDEVFLNLVLEYIPETVYKVARQYAKTKQTIPINFIRLYMYQLFRSLAYIHSLGICHRDIKPQNLLLDPETAVLKLCDFGSAKQLLHGEPNVSYICSRYYRAPELIFGAINYTTKIDVWSAGCVLAELLLGQPIFPGDSGVDQLVEVIKVLGTPTREQIREMNPNYTEFKFPQIKSHPWQKVFRIRTPTEAINLVSLLLEYTPSARITPLKACAHPFFDELRMEGNHTLPNGRDMPPLFNFTEHELSIQPSLVPQLLPKHLQNASGPGGNRPSAGGAASIAASGSTSVSSTGSGASVEGSAQPQSQGTAAAAGSGSGGATAGTGGASAGGPGSGNNSSSGGASGAPSAVAAGGANAAVAGGAGGGGGAGAATAAATATGAIGATNAGGANVTDS | – | reduced |
